Assay results reported in publication PMC11039992, “Distinct functions for the paralogous RBM41 and U11/U12-65K proteins in the minor spliceosome”.

Key:
[1] = molecular target: T1, RBM41 RRM (C-terminal fragment) (Homo sapiens, UniProt Q96IZ5 267-413); assay: EMSA; 20 mM HEPES-KOH pH 8.0, 100 mM KCl, 1.5 mM MgCl2, 5% glycerol, 0.1 ug/ul BSA, 1 ug/ul yeast RNA, 1 U/ul RiboLock; 5 nM RNA, 0.25-25 uM protein; 1 h on ice, gel; conditions: protein: recombinant; tags: GST tag removed with PreScission protease (untagged); label: 5' 32P; hairpin
T1 sequence: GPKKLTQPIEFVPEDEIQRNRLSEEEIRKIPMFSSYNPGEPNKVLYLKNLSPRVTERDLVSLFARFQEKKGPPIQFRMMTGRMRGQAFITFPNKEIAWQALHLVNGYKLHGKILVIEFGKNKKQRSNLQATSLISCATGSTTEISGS

[2] = molecular target: T2, U11/U12-65K C-terminal RRM (65K C-RRM) (Homo sapiens, UniProt Q96LT9 380-517); assay: as above; conditions: protein: recombinant; tags: GST tag removed with PreScission protease (untagged); label: 5' 32P; hairpin
T2 sequence: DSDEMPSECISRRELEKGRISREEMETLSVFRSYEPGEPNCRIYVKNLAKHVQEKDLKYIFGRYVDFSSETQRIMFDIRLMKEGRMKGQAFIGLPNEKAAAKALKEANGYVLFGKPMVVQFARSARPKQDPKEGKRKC

GGGCGGAUGAAACGCCC (structured_RNA) [U12comp control hairpin]: no binding [1]; no binding [2].

GCCACCUACUUCGUGGC (structured_RNA) [U6atac-(92-108) hairpin] showed a Kd [1] of 3.78 µM and a Kd [2] of 2.07 µM.

CCCGCCUACUUUGCGGG (structured_RNA) [U12-(109-125) hairpin] was tested, and the Kd [1] was 2.14 µM and the Kd [2] was 1.04 µM.
